Experiments:
Assay in all cases: cell-based or functional assay
[1] = target: hCXCL10R75A-G1T4k.one//VHn-G1T4h.one.H435R (human) [IgG part: P01857]
[2] = target: hCXCL10R75A.0010-G1T4k.one//VHn-G1T4h.one.H435R (human) [IgG part: P01857]
[3] = target: hCXCL10R75A.0044-G1T4k.one//VHn-G1T4h.one.H435R (human) [IgG part: P01857]
[4] = target: hCXCL10R75A.0001-G1T4k.one//VHn-G1T4h.one.H435R (human) [IgG part: P01857]
[5] = target: hCXCL10R75A.0005-G1T4k.one//VHn-G1T4h.one.H435R (human) [IgG part: P01857]
[6] = target: hCXCL10R75A.0034-G1T4k.one//VHn-G1T4h.one.H435R (human) [IgG part: P01857]
[7] = target: hCXCL10R75A.0038-G1T4k.one//VHn-G1T4h.one.H435R (human) [IgG part: P01857]
[8] = target: hCXCL10R75A.0027-G1T4k.one//VHn-G1T4h.one.H435R (human) [IgG part: P01857]
[9] = target: hCXCL10R75A.0047-G1T4k.one//VHn-G1T4h.one.H435R (human) [IgG part: P01857]
[10] = target: hCXCL10R75A.0053-G1T4k.one//VHn-G1T4h.one.H435R (human) [IgG part: P01857]
[11] = target: hCXCL10R75A.0015-G1T4k.one//VHn-G1T4h.one.H435R (human) [IgG part: P01857]
[12] = target: hCXCL10R75A.0054-G1T4k.one//VHn-G1T4h.one.H435R (human) [IgG part: P01857]
[13] = target: hCXCL10R75A.0007-G1T4k.one//VHn-G1T4h.one.H435R (human) [IgG part: P01857]
[14] = target: hCXCL10R75A.0029-G1T4k.one//VHn-G1T4h.one.H435R (human) [IgG part: P01857]
[15] = target: hCXCL10R75A.0031-G1T4k.one//VHn-G1T4h.one.H435R (human) [IgG part: P01857]
[16] = target: hCXCL10R75A.0042-G1T4k.one//VHn-G1T4h.one.H435R (human) [IgG part: P01857]
[17] = target: hCXCL10R75A.0016-G1T4k.one//VHn-G1T4h.one.H435R (human) [IgG part: P01857]
[18] = target: hCXCL10R75A.0004-G1T4k.one//VHn-G1T4h.one.H435R (human) [IgG part: P01857]
[19] = target: hCXCL10R75A.0009-G1T4k.one//VHn-G1T4h.one.H435R (human) [IgG part: P01857]
[20] = target: hCXCL10R75A.0023-G1T4k.one//VHn-G1T4h.one.H435R (human) [IgG part: P01857]
[21] = target: hCXCL10R75A.0049-G1T4k.one//VHn-G1T4h.one.H435R (human) [IgG part: P01857]
[22] = target: hCXCL10R75A.0018-G1T4k.one//VHn-G1T4h.one.H435R (human) [IgG part: P01857]
[23] = target: hCXCL10R75A.0017-G1T4k.one//VHn-G1T4h.one.H435R (human) [IgG part: P01857]
[24] = target: hCXCL10R75A.0019-G1T4k.one//VHn-G1T4h.one.H435R (human) [IgG part: P01857]
[25] = target: hCXCL10R75A.0033-G1T4k.one//VHn-G1T4h.one.H435R (human) [IgG part: P01857]
[26] = target: hCXCL10R75A.0036-G1T4k.one//VHn-G1T4h.one.H435R (human) [IgG part: P01857]
[27] = target: hCXCL10R75A.0025-G1T4k.one//VHn-G1T4h.one.H435R (human) [IgG part: P01857]
[28] = target: hCXCL10R75A.0041-G1T4k.one//VHn-G1T4h.one.H435R (human) [IgG part: P01857]
Sequence of hCXCL10R75A.0041-G1T4k.one//VHn-G1T4h.one.H435R (human) [IgG part: P01857] (P01857 other isoform, or with tags, fused parts or gaps H435R H435R, chain 1 of 2): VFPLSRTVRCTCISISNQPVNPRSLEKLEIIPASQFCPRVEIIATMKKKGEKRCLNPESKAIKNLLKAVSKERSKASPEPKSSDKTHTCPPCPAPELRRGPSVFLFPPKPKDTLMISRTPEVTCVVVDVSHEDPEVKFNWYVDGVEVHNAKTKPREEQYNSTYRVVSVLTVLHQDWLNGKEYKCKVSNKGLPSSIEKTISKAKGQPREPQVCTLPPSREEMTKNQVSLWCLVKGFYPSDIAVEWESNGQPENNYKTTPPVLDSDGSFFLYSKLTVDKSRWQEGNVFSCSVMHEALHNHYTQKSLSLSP
Sequence of hCXCL10R75A.0041-G1T4k.one//VHn-G1T4h.one.H435R (human) [IgG part: P01857] (P01857 other isoform, or with tags, fused parts or gaps H435R H435R, chain 2 of 2): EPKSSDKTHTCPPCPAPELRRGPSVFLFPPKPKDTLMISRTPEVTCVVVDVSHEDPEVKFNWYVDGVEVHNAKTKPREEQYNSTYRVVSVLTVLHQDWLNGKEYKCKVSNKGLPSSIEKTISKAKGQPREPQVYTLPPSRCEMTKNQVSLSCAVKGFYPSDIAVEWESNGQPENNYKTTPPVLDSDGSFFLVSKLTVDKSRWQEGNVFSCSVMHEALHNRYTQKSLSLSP

Sequence of human dipeptidyl peptidase IV (human DPPIV, hDPPIV) (Biolegend, 764102) (P27487 29-766 limits assumed): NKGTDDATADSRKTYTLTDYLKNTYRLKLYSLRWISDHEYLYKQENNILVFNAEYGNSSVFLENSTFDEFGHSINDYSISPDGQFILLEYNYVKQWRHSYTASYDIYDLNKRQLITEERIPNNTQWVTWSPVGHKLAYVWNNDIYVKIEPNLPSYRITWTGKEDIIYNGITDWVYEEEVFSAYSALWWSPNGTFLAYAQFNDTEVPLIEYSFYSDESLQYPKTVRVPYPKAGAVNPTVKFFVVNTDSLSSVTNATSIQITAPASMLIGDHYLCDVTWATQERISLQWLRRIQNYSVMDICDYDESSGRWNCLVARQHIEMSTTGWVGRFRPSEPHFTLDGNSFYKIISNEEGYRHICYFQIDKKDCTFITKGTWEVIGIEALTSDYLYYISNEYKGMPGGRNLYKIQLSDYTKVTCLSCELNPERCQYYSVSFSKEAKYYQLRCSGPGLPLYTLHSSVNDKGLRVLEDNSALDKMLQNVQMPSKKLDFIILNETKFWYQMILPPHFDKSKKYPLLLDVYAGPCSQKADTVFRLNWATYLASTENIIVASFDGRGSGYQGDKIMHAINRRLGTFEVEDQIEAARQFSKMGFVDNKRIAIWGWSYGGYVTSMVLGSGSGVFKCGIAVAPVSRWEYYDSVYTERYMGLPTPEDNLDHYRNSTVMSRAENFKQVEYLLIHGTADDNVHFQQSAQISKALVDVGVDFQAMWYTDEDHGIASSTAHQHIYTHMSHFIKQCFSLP
Sequence of hCXCL10R75A.0016-G1T4k.one//VHn-G1T4h.one.H435R (human) [IgG part: P01857] (P01857 other isoform, or with tags, fused parts or gaps H435R H435R, chain 1 of 2): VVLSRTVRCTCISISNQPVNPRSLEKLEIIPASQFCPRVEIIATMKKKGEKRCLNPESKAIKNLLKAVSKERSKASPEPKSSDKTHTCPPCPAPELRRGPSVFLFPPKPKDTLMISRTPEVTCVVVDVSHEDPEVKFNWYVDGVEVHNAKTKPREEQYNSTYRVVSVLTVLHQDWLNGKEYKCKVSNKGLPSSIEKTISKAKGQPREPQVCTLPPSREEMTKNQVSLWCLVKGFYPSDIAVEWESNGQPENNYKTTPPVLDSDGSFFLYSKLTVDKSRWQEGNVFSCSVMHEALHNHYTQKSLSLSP
Sequence of hCXCL10R75A.0016-G1T4k.one//VHn-G1T4h.one.H435R (human) [IgG part: P01857] (P01857 other isoform, or with tags, fused parts or gaps H435R H435R, chain 2 of 2): as the sequence (P01857 other isoform, or with tags, fused parts or gaps H435R H435R, chain 2 of 2) above
Sequence of hCXCL10R75A.0054-G1T4k.one//VHn-G1T4h.one.H435R (human) [IgG part: P01857] (P01857 other isoform, or with tags, fused parts or gaps H435R H435R, chain 1 of 2): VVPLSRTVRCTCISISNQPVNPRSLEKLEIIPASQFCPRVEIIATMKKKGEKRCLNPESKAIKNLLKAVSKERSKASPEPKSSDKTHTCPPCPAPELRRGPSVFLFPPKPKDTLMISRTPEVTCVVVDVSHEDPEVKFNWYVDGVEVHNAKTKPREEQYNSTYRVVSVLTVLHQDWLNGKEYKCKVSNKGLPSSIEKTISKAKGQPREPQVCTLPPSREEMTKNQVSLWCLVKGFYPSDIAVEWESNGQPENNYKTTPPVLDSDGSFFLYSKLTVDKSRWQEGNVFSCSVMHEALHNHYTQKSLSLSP
Sequence of hCXCL10R75A.0054-G1T4k.one//VHn-G1T4h.one.H435R (human) [IgG part: P01857] (P01857 other isoform, or with tags, fused parts or gaps H435R H435R, chain 2 of 2): as the sequence (P01857 other isoform, or with tags, fused parts or gaps H435R H435R, chain 2 of 2) above
Sequence of hCXCL10R75A.0038-G1T4k.one//VHn-G1T4h.one.H435R (human) [IgG part: P01857] (P01857 other isoform, or with tags, fused parts or gaps H435R H435R, chain 1 of 2): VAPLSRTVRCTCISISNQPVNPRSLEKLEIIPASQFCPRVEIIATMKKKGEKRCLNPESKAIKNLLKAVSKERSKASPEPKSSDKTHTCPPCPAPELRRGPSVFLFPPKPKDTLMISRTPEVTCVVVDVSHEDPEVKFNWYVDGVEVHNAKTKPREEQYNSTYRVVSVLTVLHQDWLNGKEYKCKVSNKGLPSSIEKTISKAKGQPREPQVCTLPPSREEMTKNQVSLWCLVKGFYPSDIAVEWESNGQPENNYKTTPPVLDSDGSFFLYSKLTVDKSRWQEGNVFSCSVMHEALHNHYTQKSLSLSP
Sequence of hCXCL10R75A.0038-G1T4k.one//VHn-G1T4h.one.H435R (human) [IgG part: P01857] (P01857 other isoform, or with tags, fused parts or gaps H435R H435R, chain 2 of 2): as the sequence (P01857 other isoform, or with tags, fused parts or gaps H435R H435R, chain 2 of 2) above
Sequence of hCXCL10R75A.0025-G1T4k.one//VHn-G1T4h.one.H435R (human) [IgG part: P01857] (P01857 other isoform, or with tags, fused parts or gaps H435R H435R, chain 1 of 2): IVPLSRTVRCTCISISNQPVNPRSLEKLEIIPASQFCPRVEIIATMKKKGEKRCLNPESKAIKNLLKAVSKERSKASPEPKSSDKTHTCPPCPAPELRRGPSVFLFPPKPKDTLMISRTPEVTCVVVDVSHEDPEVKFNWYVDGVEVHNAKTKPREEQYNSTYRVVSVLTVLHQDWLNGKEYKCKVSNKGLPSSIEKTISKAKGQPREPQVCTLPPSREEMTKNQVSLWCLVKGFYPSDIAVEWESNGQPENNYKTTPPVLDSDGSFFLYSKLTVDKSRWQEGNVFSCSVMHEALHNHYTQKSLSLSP
Sequence of hCXCL10R75A.0025-G1T4k.one//VHn-G1T4h.one.H435R (human) [IgG part: P01857] (P01857 other isoform, or with tags, fused parts or gaps H435R H435R, chain 2 of 2): as the sequence (P01857 other isoform, or with tags, fused parts or gaps H435R H435R, chain 2 of 2) above
Sequence of hCXCL10R75A.0053-G1T4k.one//VHn-G1T4h.one.H435R (human) [IgG part: P01857] (P01857 other isoform, or with tags, fused parts or gaps H435R H435R, chain 1 of 2): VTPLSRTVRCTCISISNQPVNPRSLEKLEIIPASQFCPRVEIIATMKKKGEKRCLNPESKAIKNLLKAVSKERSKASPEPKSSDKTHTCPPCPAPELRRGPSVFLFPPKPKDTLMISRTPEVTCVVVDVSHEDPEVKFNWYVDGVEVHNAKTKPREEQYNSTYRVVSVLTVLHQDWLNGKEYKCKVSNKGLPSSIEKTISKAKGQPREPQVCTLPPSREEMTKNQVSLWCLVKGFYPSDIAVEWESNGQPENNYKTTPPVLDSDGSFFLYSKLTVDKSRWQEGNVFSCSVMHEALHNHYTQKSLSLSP
Sequence of hCXCL10R75A.0053-G1T4k.one//VHn-G1T4h.one.H435R (human) [IgG part: P01857] (P01857 other isoform, or with tags, fused parts or gaps H435R H435R, chain 2 of 2): as the sequence (P01857 other isoform, or with tags, fused parts or gaps H435R H435R, chain 2 of 2) above
Sequence of hCXCL10R75A.0015-G1T4k.one//VHn-G1T4h.one.H435R (human) [IgG part: P01857] (P01857 other isoform, or with tags, fused parts or gaps H435R H435R, chain 1 of 2): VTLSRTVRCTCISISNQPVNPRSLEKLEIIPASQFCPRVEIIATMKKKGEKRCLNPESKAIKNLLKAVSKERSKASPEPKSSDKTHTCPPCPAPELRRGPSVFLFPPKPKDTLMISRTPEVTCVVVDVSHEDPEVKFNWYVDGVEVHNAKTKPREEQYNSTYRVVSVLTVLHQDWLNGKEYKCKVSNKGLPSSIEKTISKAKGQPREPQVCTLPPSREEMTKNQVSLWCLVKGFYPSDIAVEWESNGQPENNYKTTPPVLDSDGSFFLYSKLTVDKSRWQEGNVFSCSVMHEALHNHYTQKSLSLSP
Sequence of hCXCL10R75A.0015-G1T4k.one//VHn-G1T4h.one.H435R (human) [IgG part: P01857] (P01857 other isoform, or with tags, fused parts or gaps H435R H435R, chain 2 of 2): as the sequence (P01857 other isoform, or with tags, fused parts or gaps H435R H435R, chain 2 of 2) above

- mass change after hDPPIV treatment (LC/MS) [1]: 195 Da
- mass change after hDPPIV treatment (LC/MS) [2]: -1 Da
- mass change after hDPPIV treatment (LC/MS) [3]: 0 Da
- mass change after hDPPIV treatment (LC/MS) [4]: 171 Da
- mass change after hDPPIV treatment (LC/MS) [5]: -1 Da
- mass change after hDPPIV treatment (LC/MS) [6]: 0 Da
- mass change after hDPPIV treatment (LC/MS) [7]: 0 Da
- mass change after hDPPIV treatment (LC/MS) [8]: 1 Da
- mass change after hDPPIV treatment (LC/MS) [9]: 0 Da
- mass change after hDPPIV treatment (LC/MS) [10]: -2 Da
- mass change after hDPPIV treatment (LC/MS) [11]: 0 Da
- mass change after hDPPIV treatment (LC/MS) [12]: 0 Da
- mass change after hDPPIV treatment (LC/MS) [13]: 1 Da
- mass change after hDPPIV treatment (LC/MS) [14]: -1 Da
- mass change after hDPPIV treatment (LC/MS) [15]: 0 Da
- mass change after hDPPIV treatment (LC/MS) [16]: 1 Da
- mass change after hDPPIV treatment (LC/MS) [17]: 1 Da
- mass change after hDPPIV treatment (LC/MS) [18]: 1 Da
- mass change after hDPPIV treatment (LC/MS) [19]: 1 Da
- mass change after hDPPIV treatment (LC/MS) [20]: 1 Da
- mass change after hDPPIV treatment (LC/MS) [21]: 1 Da
- mass change after hDPPIV treatment (LC/MS) [22]: 0 Da
- mass change after hDPPIV treatment (LC/MS) [23]: 0 Da
- mass change after hDPPIV treatment (LC/MS) [24]: 1 Da
- mass change after hDPPIV treatment (LC/MS) [25]: 2 Da
- mass change after hDPPIV treatment (LC/MS) [26]: 0 Da
- mass change after hDPPIV treatment (LC/MS) [27]: 0 Da
- mass change after hDPPIV treatment (LC/MS) [28]: 0 Da
Substance: human dipeptidyl peptidase IV (human DPPIV, hDPPIV) (Biolegend, 764102) (from UniProt P27487 29-766) (enzyme)

— US20260217779A1
